Experiment: soluble on expression in E. coli; label from the status in PepcDB or PDB records
With “MSLKPVVVMTQTNDMQSDLVSIIHKPFIDIKPLNFDIHLLNQRYDWLIFSSKNAVKFFYKYLKGINVDNIAVIGSKTAQYCESLGIRVDFMPNDFSQEGFLKSFNQTNQKILLPSSELARPLLLAALSKDNEVVKIDLYTSVPNKQNIQDVKEMIEHQQIDALTFSSSSAVRYYFNEGFVPKFKSYFAIGEQTARTIKTYQQPVTIAEIQTLESLIEKILESRGEGHHHHHH” the “soluble on expression in E. coli” value was “soluble”.
In the case of “MSLKQFSPDKMLNTPFGITAAQLRKMGKTTILTDLDNTLLAWDQLDATDEVINWFTILKEEGIKVMIFSNNNEERVARVAKAIDVPYLARAKKPLGANFRWALKEMDATPEETVMIGDQIMTDIFGGNRQKLTTIFVRPVKQTDGMATKLNRMMESVILKRLAKKNQIKWEESEGHHHHHH”, the “soluble on expression in E. coli” value is reported as “soluble”.
In the case of “MSLKQNQNSDESIDENMSVDNTETCMVDTVKATAIFWIDKAEAKHCKDSGLRTIKAKVFIHENGKVDFLSFTKKQSSGVEKYILHHLDKFQISKRMLEGGYIQTGEQFVQLRCMREKLQAMQEGHHHHHH”, the “soluble on expression in E. coli” value is reported as “soluble”.
For “MSLKRLACYIRVSSNKDDQQSSLIQQETLLREKFKQEDLIIYSDTGTGVSFNREGFKRLMYDAGLNICKLNDGRITFEADNIRKPIFDEIVVINTSRFSRNIAIIDILRVLWDYKKINVHFLDNCKNSNNPNDMTVLKMFFSMAENESMETSNRTKRGNEISILDNTIRNNSIFGWDFDREKNYLKINKKEAEIVRFIFKTALTNGLKMTAKIVNEKGYRTKKNRLWSSSTIKTLIVNPKYKGYNVRNKYSNENMFTGVKSKYVKKENWIIQKNNRIEPIVSEELWEEVQRALESRCLHGNREGHHHHHH”, the “soluble on expression in E. coli” value was “soluble”.
In the case of “MSLKSDKDHSVNINARGSFNDRADEISDAEQYGNRLSLAYQGKFLEDTLGVAVGYAHLYQPYVASQFIGLRFNDANEDVNGDGVKEAISEGFELQQKGGDDTRDGYMAAIHWQPTDNFSVKGDLFHSKFTSENFARGFRVKSLKNGTISDAVVESGSMTGGTVSTDGTDNFAVFVVNDNDSKYSELTSGSFNVEWNNGGALTVAADVSYSKADGEFVNGGTRAVLYDDIGNEVRSAESVTYKLNGLSPADISFANDYTNTATLGLKEVGMWPYNQQNDLVAYKLDFNYALDMGFVSSVDFGVRYAEREFNAQRSQAGYGFEYGKNPSNQPVLALNGDMAKVVDFGGELSGYPSFLAIDFNKAIELVNAQLAATGQSPFTPTANWSNNWTMIQSGAVNEDVLAGYVQANLDFDIGDIKVTGNLGVRVVNTDQSSTGLQQVGYGLGEAITDELGVVSKDYIRNEVGKTYTDYLPSLNLTFHLTENDQLRFAAASVMSRPPINKLKSGMGSWYDDSATPGYKKYNAWGNTSPLLDPFYADQYDLSYEHFFEESEGAVVVALFYKDIKSFINDFTIQPFDFEANGFIVPDTIIDNGVEFPVIKNEGQYQTAINNDKGGYIRGIELGYTQIFDFLPSPLDGLGFTGSYSYSDSEVELTTDLSGSNLIMPLPGEGHHHHHH”, the “soluble on expression in E. coli” value is reported as “not soluble”.
With “MSLKSRTIKSIEVFPVQLPVKRTFNFASGSAGAQGSLAKLVFVKVTDSEGCHGWGEGRAHPQWSYETPESLVSTLRKHLAPAVIGLDIWDRRNLHARMHAAVGRGPSTGMPVAKAALDIAVHDLCARASGLPLRAFLGGSSEKTEVALSWTVAVKSPAEVGDDVAAGRSEGFAHFNFKVGVSLKQDEELVRAARTHVPADSFLWMDANQGVEFTRAVRLARVLEEHAVNVLEQPLAADQMHQMRHLRSQTAIPLAVDESSVSPGDYFAHAAEGLVDYFVLKLTRTGGIWPTLLQLGTATSAGHGLLVSGLSDSMVTKLAACQVAAAFGFTGPAALNGSQFLDDSVLFPTKSAVERRGIVHLDTSPGLGIEPDENALRAHAWKTDCVEGHHHHHH” the “soluble on expression in E. coli” value was “soluble”.
With “MSLKSYGAVKRISGKNRYVLSENIAKQMGSYDKAIVVTGRVFQDALAIAPYAAAHGYPILLTEKDKLPDYDLPKQVIIIGSSFSVSDSVENQIKKTSEGHHHHHH” the “soluble on expression in E. coli” value was “soluble”.
In the case of “MSLKTGRALRIAVLVSGRLNLWFSSSIIEGLNEVFHDEGYDISIYQMSSTEERSEFFDMLPVRRNVDAVIVISFDIASNEIRQLRSVDVPIIGINSSLPEERGFNAAVRIDDKQGSELAARHLMMLGHRDIVYIRSDREVTLHFSVQGRYESFMACCQANGVEPRVLVTDAGRNRISKVVTQLLSLDHMPTAIACQEDGIAVPLLFQLERNGFTVPNDISIIGYDDSVYARDLGLTTIRQTPVEMAREAARMTLALIEKQPLDEPFKTFPAQLIVRSTTARLHSEGHHHHHH”, the “soluble on expression in E. coli” value is reported as “soluble”.

— the DeepSol protein solubility set
